B1: TPR t1 (parent)
chain: GACCAAUCUGCCCUCAGAGCUCGAGAACAUCUUCGGAUGCAGAGGAGGCAGGCUUCGGUGGCGCGAUAGCGCCAACGUCCUCAACCUCCAAUGCAUCCCACCACAUGAUGAUGCCUGAAGAGCCUUGGUUUUUUG

The data set covers variants of B1. Description: polymerase ribozyme fitness, log enrichment relative to wild type (log ratio); higher = more active; in vitro selection for triplet polymerase activity. In a few lines:
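The heterodimeric triplet polymerase ribozyme's subunits were each mutagenized into PCR-built libraries and transcribed. Every library was selected once, in triplicate, by annealing with a biotinylated primer, the partner subunit and triplets, incubating frozen at −7 °C, gel-excising extended constructs, capturing on streptavidin beads and running RT-PCR. Input and output libraries were Illumina-sequenced, with genotypes kept only at ≥10 input reads and ≥1 read per output. Fitness, from inverse-variance-weighted replicate averages, is the base-2 logarithm of genotype enrichment over wild-type enrichment.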
Regarding G23C G110C, the “polymerase ribozyme fitness (log ratio)” value is -7.42.
To A24G A37G G47A G120C belongs -1.98.
To A24G G60A belongs -1.82; to C22U A75G, -3.55; to C22G U38A G61U C124U, -3.08.
Consider C22G A118G A121U, for which the “polymerase ribozyme fitness (log ratio)” value was -1.54.
To A24G G57A G77U belongs -2.15; to C22U C73U U78A C89G U112A C124A, -6.98; to C22U A46U G69U G117A, -4.33.
To C22U A37U G57A C115A belongs -4.73.
As for G23A C49A, the “polymerase ribozyme fitness (log ratio)” value was -5.5.
To C22U C85A belongs -6.28.
To C22U C85U belongs -4.5; to C22G G36A C101U, -5.03.
To A24U belongs -5.7; to A24G, -1.19.
In the case of A24C, the “polymerase ribozyme fitness (log ratio)” value is -6.63.
To C22G U54A belongs -3.16; to G23U C56U C70G A75U U78A C99A U112A, -6.9; to C22U A26U A27U A41C G71C C82G A111C A118U G127C, -6.27.
For the variant C22U C86G A100C A121U G135U, the “polymerase ribozyme fitness (log ratio)” value is -4.77.
For A24G U59G, the “polymerase ribozyme fitness (log ratio)” value is -1.69.
To A24G U55A U130A belongs -1.66; to C22G G69A C124A, -3.93.
To A24G A29U G45A G47C G77C U129A belongs -5.43; to A24G G52A C115U, -2.59.
Regarding C22G C40A, the “polymerase ribozyme fitness (log ratio)” value is -4.68.
To C22U G44C C56U belongs -4.25; to C22U G69U C82U C124G U126A, -0.7; to C22U C82A A84C G93C U112C, -4.92.
To A24C A91U G117U C123G belongs -7.92; to A24G C85A, -3.6; to A24G C85G, -2.32.
To C22U C89U belongs -3.61.
Consider C22U C89A, for which the “polymerase ribozyme fitness (log ratio)” value is -4.83.
Take C22G C49U G110C: the “polymerase ribozyme fitness (log ratio)” value was -5.9.
To C22G C56U belongs -3.32.
To C22G C114U belongs -3.43.
To C22G C114A belongs -3.01.
For C22U G45A C89U A121C C124G U125A, the “polymerase ribozyme fitness (log ratio)” value was -5.69.
Take C22G C40A G69C G113A: the “polymerase ribozyme fitness (log ratio)” value is -5.15.
To G23A C28G G69U U78G C79U U112C G128U U133G belongs -5.41; to C22G G52A G63U U81G G110A, -7.15.
To C22G C123U belongs -2.66; to C22G C123A, -3.18.
To G23A G69U A90U C124U belongs -5.33; to C22G G44U U109G G110C, -5.8; to C22G C56U C88U A91C, -4.75.
Regarding A24G U78C, the “polymerase ribozyme fitness (log ratio)” value was -1.32.
To A24U C79U C114U G128A U131A belongs -5.77; to G23C A37G C40A G45A G57A C114A A118U, -7.04; to A24G C34A G45U G57U C72U, -5.61.
To C22U C72A C79A belongs -5.61; to G23U G117A, -6.33.
For the variant C22U A37U C56U, the “polymerase ribozyme fitness (log ratio)” value was -5.01.
To C22G A50G belongs -3.5; to G23A C70A, -4.2.
To G23A C70U belongs -4.99.
To C22G G57A C124U belongs -2.07; to C22G C82A A83U G93C, -4.04; to C22U U38C U78C, -4.58.
Consider G23A C56G A95U U112A G127C, for which the “polymerase ribozyme fitness (log ratio)” value is -6.5.
To C22U G52A C88U belongs -5.75; to A24G G77U G113U G122U C124A, -6.49.
To C22G G52U A111C belongs -3.81; to C22G A46G G60A G120A, -4.49; to C22G A75U, -3.6.
To A24G G42U U59G C88G belongs -5.92; to C22G G69A C79A, -5.64; to A24G A37U U96C G110U, -3.88.
On to C22G G23C A24C C89A C123A, for which the “polymerase ribozyme fitness (log ratio)” value is -6.86.
To C22G U38A U96C U112A A121U belongs -3.78; to C22U C123A, -3.4; to C22U U55A, -3.49.
To G23U G61U C86A A100U C114U G117U belongs -7.47.
To C22U U81A C88G belongs -5.9; to C22U C73A, -3.74; to C22G C62G C104U G120A, -4.19.
Regarding A24U G36U U87C A90G G120U C124A U130G, the “polymerase ribozyme fitness (log ratio)” value was -6.87.
To G23A C115U belongs -3.88.
To C22U A121C belongs -3; to G23A G63C C101U A111G, -6.12.
To C22U A41U C73G C99U belongs -6.26.
Turning to A24G C70A G110A A111U, the “polymerase ribozyme fitness (log ratio)” value is -5.11.
To A24U C72G A95C G110U belongs -7.4; to A24G A46C A111C U130G, -3.43.
To C22G G47U belongs -4.11; to A24U U38G C114A U126G U132A, -6.67; to A24G C64U, -1.79.
To C22U A43G G61A C115A belongs -5.11; to A24G G69A C82A A95C G120A, -4.87; to A24G C56A G60U A83C U133A, -2.54.
For the variant C22G G60A, the “polymerase ribozyme fitness (log ratio)” value was -3.33.
To C22G G60C belongs -3.23; to A24G G61A A84U C85A, -2.08; to G23U C56U, -6.5.
To C22G A75U C101U C123A G128C belongs -6.24; to A24G C62A A74C G120C, -4.13; to C22G G113C, -5.28.
To C22G C53U C70A G120A G128U belongs -4.71; to A24U G110A, -6.09; to A24G C86G C99U C114G, -7.76.
With C22U G69U C94G, the “polymerase ribozyme fitness (log ratio)” value is -1.67.
To C22U A37U belongs -4.82; to C22G U106A, -2.37; to A24C U38G C89U G113U, -6.49.
To G23U G120C belongs -3.8; to C22U C34U C73U A83C C124G, -6.07.
As to G23A C56G C76U G110A G117A C124G, the “polymerase ribozyme fitness (log ratio)” value is -7.16.
To A24C C102U belongs -6.73; to C22U G63U C82U C124G U126A, -3.87.
To C22U C98U belongs -4.36.
To C22G C53U belongs -4.09; to C22G C31U G51C U81A G93A C123U, -6.15; to C22U G71A, -3.86.
As for C22U G71C, the “polymerase ribozyme fitness (log ratio)” value is -4.89.
To C22G A95G C104U belongs -2.37.
As to C22U A26G A119G G122A C123A, the “polymerase ribozyme fitness (log ratio)” value was -2.69.
Consider C22G U67A G93C A103G G110U, for which the “polymerase ribozyme fitness (log ratio)” value was -5.12.
To C22U U59C A100C belongs -3.95.
To C22G G60C C104A A121U belongs -2.34.
To A24G G52A A91G belongs -3.17; to C22U G60A C123A, -4.89.
In the case of A24C A26G, the “polymerase ribozyme fitness (log ratio)” value was -4.53.
To C22G G36U belongs -4.91; to C22G G44U, -4.12; to C22G G44C, -4.3.
To A24C G48C G69U belongs -6.7; to C22G A46G C82A A121G G135U, -2.94.
For the variant C22U C62U, the “polymerase ribozyme fitness (log ratio)” value was -4.34.
To G23C C64U G120U U133A belongs -7.42; to C22U C56U, -3.77; to A24G A90G, -1.65.
To A24U C123U belongs -4.2.
Turning to A24U C123G, the “polymerase ribozyme fitness (log ratio)” value is -3.41.
To C22U C53U belongs -4.37.
To C22G C28U A37U G48A G110C belongs -3.85.
To C22U A41U C53U C56U G61U G110U A121C belongs -7.42; to C22G A74C, -3.02.
For G23U G69U, the “polymerase ribozyme fitness (log ratio)” value is -5.44.
Turning to G23A C124A, the “polymerase ribozyme fitness (log ratio)” value was -1.95.
To G23A G60A belongs -4.52.
To C22G G44C G48U A121U belongs -3.43.
To C22G G63C C80A belongs -5.79; to C22U G77A, -4.04.
Turning to C22U C76A, the “polymerase ribozyme fitness (log ratio)” value was -3.53.
To A24G G120A belongs -0.603; to C22G C56A C79A, -4.99; to A24G C62U U81A, -3.04.
To C22G G57A G63A C101A A105U belongs -6.73.
To C22G G23A G52C belongs -3.57; to G23A C49U C56A U116C, -6.08; to G25A A41U, -5.8.
With C22U C114G C124A U125G, the “polymerase ribozyme fitness (log ratio)” value was -5.84.
To C22U C40G G63A A74U A75U belongs -5.63; to G23A G69U, -3.97.
Consider A24G G57A, for which the “polymerase ribozyme fitness (log ratio)” value is -2.62.
To C22U G113C belongs -6.59.
To C22U G63U U78G U112A belongs -6.24; to A24G A119U C123G U125A, 0.361; to G23C C62A C99U U112C, -6.42.
To C22G G36A G47C A119U C124G belongs -3.6; to A24C C101G U112G, -6.34; to G23C C85G C97A G120C, -7.88.
For the variant A24G G47A G77U C86U, the “polymerase ribozyme fitness (log ratio)” value is -2.29.
To A24G C28G G48U C64U belongs -6.05.
For A24G G71U U106A, the “polymerase ribozyme fitness (log ratio)” value was -2.23.

Values taken from the RNAGym collection of RNA variant scans (doi:10.1073/pnas.2313332121).
